B1: AHF17591 (Fab, V domains shown, not shown: small tags and cut ends)
VH: DVQLVESGGDLVKPGGSLRLTCVASGLSLTSSSMVWVRQAPGKGLQWVSTIYSNRGTYYTDSVKGRFTISKDNAENTLYLQMNNLKTEDTATYYCASIYYYDADYLHWYFDEWGQGALVTVSS
VL: EIQMTQSPTSLSASVGDRVTITCRASEGIANNLSWYQQTPGKAPKLLIYATSILHSGVPSRFSGSGSGTDFTLTISSLQPEDFATYYCQQGYKWPLTFGGGTKLEITR
B2: AHF17603 (Fab, V domains shown, not shown: small tags and cut ends)
VH: B1 VH with R55G
VL: B1 VL
B3: AHF17595 (Fab, V domains shown, not shown: small tags and cut ends)
VH: B1 VH
VL: B1 VL with A30Q, I53N
B4: AHF17598 (Fab, V domains shown, not shown: small tags and cut ends)
VH: B1 VH
VL: B1 VL
B5: AHF17593 (Fab, V domains shown, not shown: small tags and cut ends)
VH: B1 VH with S97Q, E112F
VL: B1 VL with I53V
notes: Fab-SASA, combinatorial library
B6: AHF17592 (Fab, V domains shown, not shown: small tags and cut ends)
VH: B1 VH with E112F
VL: B1 VL with A30S, I53V
B7: AHF17602 (Fab-SASA) (Fab, V domains shown, not shown: small tags and cut ends)
VH: B1 VH with E112F
VL: B1 VL with I53N
B8: AHF17596 (Fab, V domains shown, not shown: small tags and cut ends)
VH: B1 VH with E112F
VL: B1 VL with I53V
B9: AHF17599 (Fab, V domains shown, not shown: small tags and cut ends)
VH: B1 VH with E112F
VL: B1 VL with I53V
B10: AHF17594 (Fab, V domains shown, not shown: small tags and cut ends)
VH: B1 VH with R55G, E112F
VL: B1 VL with I53V
B11: AHF17600 (Fab, V domains shown, not shown: small tags and cut ends)
VH: B1 VH with E112F
VL: B1 VL with A30S, I53V
B12: AHF17601 (Fab, V domains shown, not shown: small tags and cut ends)
VH: B1 VH with S97Q
VL: B1 VL with I53N
B13: AHF17597 (Fab, V domains shown, not shown: small tags and cut ends)
VH: B1 VH with E112F
VL: B1 VL with A30Q
B14: felinized clone 101 Fab-SASA variant S97H (VH) (Fab, V domains shown, not shown: small tags and cut ends)
VH: B1 VH with V35S, R55G, S97H, E112F
VL: B1 VL with A30S, I53N
B15: felinized clone 101 Fab-SASA variant Y101H (VH) (Fab, V domains shown, not shown: small tags and cut ends)
VH: B1 VH with V35S, R55G, Y101H, E112F
VL: B1 VL with A30S, I53N
B16: felinized clone 101 Fab-SASA variant Y52W (VH) (Fab, V domains shown, not shown: small tags and cut ends)
VH: B1 VH with V35S, Y52W, R55G, E112F
VL: B1 VL with A30S, I53N
B17: felinized clone 101 Fab-SASA variant Y58D (VH) (Fab, V domains shown, not shown: small tags and cut ends)
VH: B1 VH with V35S, R55G, Y58D, E112F
VL: B1 VL with A30S, I53N
B18: felinized clone 101 Fab-SASA variant T60H (VH) (Fab, V domains shown, not shown: small tags and cut ends)
VH: B1 VH with V35S, R55G, T60H, E112F
VL: B1 VL with A30S, I53N
B19: felinized clone 101 Fab-SASA variant T60D (VH) (Fab, V domains shown, not shown: small tags and cut ends)
VH: B1 VH with V35S, R55G, T60D, E112F
VL: B1 VL with A30S, I53N
B20: felinized clone 101 Fab-SASA variant S97T (VH) (Fab, V domains shown, not shown: small tags and cut ends)
VH: B1 VH with V35S, R55G, S97T, E112F
VL: B1 VL with A30S, I53N
notes: Fab-SASA in conditioned medium
B21: felinized clone 101 Fab-SASA variant T60S (VH) (Fab, V domains shown, not shown: small tags and cut ends)
VH: B1 VH with V35S, R55G, T60S, E112F
VL: B1 VL with A30S, I53N
B22: felinized clone 101 Fab-SASA variant Y99F (VH) (Fab, V domains shown, not shown: small tags and cut ends)
VH: B1 VH with V35S, R55G, Y99F, E112F
VL: B1 VL with A30S, I53N
B23: felinized clone 101 Fab-SASA variant T30R (VH) (Fab, V domains shown, not shown: small tags and cut ends)
VH: B1 VH with T30R, V35S, R55G, E112F
VL: B1 VL with A30S, I53N
B24: felinized clone 101 Fab-SASA variant T60E (VH) (Fab, V domains shown, not shown: small tags and cut ends)
VH: B1 VH with V35S, R55G, T60E, E112F
VL: B1 VL with A30S, I53N
B25: felinized clone 101 Fab-SASA variant T30N (VH) (Fab, V domains shown, not shown: small tags and cut ends)
VH: B1 VH with T30N, V35S, R55G, E112F
VL: B1 VL with A30S, I53N
B26: felinized clone 101 Fab-SASA variant S97Q (VH) (Fab, V domains shown, not shown: small tags and cut ends)
VH: B1 VH with V35S, R55G, S97Q, E112F
VL: B1 VL with A30S, I53N
notes: as for B20
B27: felinized clone 101 Fab-SASA variant S97M (VH) (Fab, V domains shown, not shown: small tags and cut ends)
VH: B1 VH with V35S, R55G, S97M, E112F
VL: B1 VL with A30S, I53N

Where a chain is given by its changes, count along the chain named. Names and notes keep the numbering of the source.

For the first experiment, the target named is T1, canine NGF tagged at the C-terminus with the Flag tag (canine, UniProt A0A8I3PYI3 122-241).
T1 construct: mature; Expressed with baculovirus technology; also called feline NGF (processed form identical)
T1 sequence (A0A8I3PYI3 entry or part of it): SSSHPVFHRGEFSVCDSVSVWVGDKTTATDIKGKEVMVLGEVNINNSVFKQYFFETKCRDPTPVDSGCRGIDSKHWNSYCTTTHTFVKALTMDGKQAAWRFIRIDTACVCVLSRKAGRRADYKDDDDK
In words: SPR off-rate assay, Fab-SASA on BSA chip.
As usually defined, the Kd is the free concentration of one partner at which half of the binding sites on the other are occupied at equilibrium, for simple one-to-one binding. High values mean lower affinity, low ones higher affinity. By koff is commonly meant a measure of how fast the partners let go of each other. As a reminder, the kon is the second-order rate constant of association. Lower therefore signals slow association. B1: the Kd is ≤ 0.00373 nM, the “Ratio (KD) WT/clones” value was 926, the “Ratio (kd) WT/clones” value is 1680 and the koff was ≤ 1e-06 s⁻¹. Besides, the kon worked out at 268000 M⁻¹ s⁻¹.

Take B2: the Kd worked out at 0.664 nM, the “Ratio (KD) WT/clones” value stood at 5.2, the “Ratio (kd) WT/clones” value was found to be 6.88 and the koff came out at 0.000245 s⁻¹. Moreover, the kon is 368000 M⁻¹ s⁻¹.

Turning to B3, the Kd is ≤ 0.00562 nM, the “Ratio (KD) WT/clones” value is 615, the “Ratio (kd) WT/clones” value was 1680 and the koff is ≤ 1e-06 s⁻¹. The kon worked out at 178000 M⁻¹ s⁻¹.

Take B4: the Kd was determined as 0.179 nM, the “Ratio (KD) WT/clones” value turned out to be 19.3, the “Ratio (kd) WT/clones” value was 32.1 and the koff amounted to 5.25e-05 s⁻¹. The kon stood at 294000 M⁻¹ s⁻¹.

In the case of B5, the Kd was ≤ 0.00613 nM, the “Ratio (KD) WT/clones” value is 563, the “Ratio (kd) WT/clones” value was determined as 1680 and the koff was ≤ 1e-06 s⁻¹. Moreover, the kon was determined as 163000 M⁻¹ s⁻¹.

With B6, binding was put at a Kd of 0.0761 nM, the “Ratio (KD) WT/clones” value stood at 45.4, the “Ratio (kd) WT/clones” value is 115 and the koff came to 1.46e-05 s⁻¹. This molecule also had a kon of 192000 M⁻¹ s⁻¹.

B7: the Kd is ≤ 0.00476 nM, the “Ratio (KD) WT/clones” value is 726, the “Ratio (kd) WT/clones” value was determined as 1680 and the koff was ≤ 1e-06 s⁻¹. This molecule also showed a kon of 210000 M⁻¹ s⁻¹.

On to B8, for which the Kd came to 0.0802 nM, the “Ratio (KD) WT/clones” value was 43.1, the “Ratio (kd) WT/clones” value was determined as 92.6 and the koff is 1.82e-05 s⁻¹. The kon came out at 227000 M⁻¹ s⁻¹.

B9: the Kd was ≤ 0.00472 nM, the “Ratio (KD) WT/clones” value was found to be 732, the “Ratio (kd) WT/clones” value stood at 1680 and the koff is ≤ 1e-06 s⁻¹. Moreover, the association rate constant (kon) worked out at 212000 M⁻¹ s⁻¹.

Turning to B10, binding was put at a Kd of 0.931 nM, the “Ratio (KD) WT/clones” value was 3.71, the “Ratio (kd) WT/clones” value was found to be 5.14 and the koff was found to be 0.000328 s⁻¹. This molecule also had a kon of 353000 M⁻¹ s⁻¹.

Turning to B11, the Kd is 0.329 nM, the “Ratio (KD) WT/clones” value came to 10.5, the “Ratio (kd) WT/clones” value was found to be 29 and the off-rate (koff) was found to be 5.81e-05 s⁻¹. The kon was found to be 177000 M⁻¹ s⁻¹.

Consider B12, for which the Kd is ≤ 0.00344 nM, the “Ratio (KD) WT/clones” value is 1010, the “Ratio (kd) WT/clones” value was found to be 1680 and the koff was ≤ 1e-06 s⁻¹. The same molecule had a kon of 291000 M⁻¹ s⁻¹.

For B13, the Kd was 0.0544 nM, the “Ratio (KD) WT/clones” value stood at 63.5, the “Ratio (kd) WT/clones” value was 156 and the koff came to 1.08e-05 s⁻¹. Also, the kon was determined as 199000 M⁻¹ s⁻¹.

The target of the next experiment is T1, canine NGF tagged at the C-terminus …. In words: SPR off-rate screen, Fab-SASA on BSA chip.
As for B14, the Kd amounted to 1.79 nM, the “Ratio WT-kd/clone-kd” value was found to be 1.77, the koff came to 0.000533 s⁻¹ and the kon stood at 297000 M⁻¹ s⁻¹.

Take B15: the Kd stood at 1.62 nM, the “Ratio WT-kd/clone-kd” value came out at 1.9, the koff was determined as 0.000496 s⁻¹ and the kon stood at 307000 M⁻¹ s⁻¹.

In the case of B16, the affinity, expressed as Kd, was 1.5 nM; the “Ratio WT-kd/clone-kd” value is 1.45; the koff was 0.000651 s⁻¹; the kon stood at 434000 M⁻¹ s⁻¹.

In the case of B17, the Kd came out at 1.47 nM, the “Ratio WT-kd/clone-kd” value was found to be 1.68, the dissociation rate constant (koff) came out at 0.000562 s⁻¹ and the kon was 381000 M⁻¹ s⁻¹.

Regarding B18, the Kd worked out at 1.8 nM, the “Ratio WT-kd/clone-kd” value came out at 1.68, the koff is 0.000561 s⁻¹ and the kon is 312000 M⁻¹ s⁻¹.

In the case of B19, the Kd came out at 1.93 nM, the “Ratio WT-kd/clone-kd” value is 1.66, the koff was 0.000567 s⁻¹ and the kon came to 294000 M⁻¹ s⁻¹.

B20: binding was characterised by a dissociation constant (Kd) of 1.88 nM, the “Ratio WT-kd/clone-kd” value was 1.32, the koff is 0.000716 s⁻¹ and the kon was found to be 380000 M⁻¹ s⁻¹.

Turning to B21, the Kd came to 1.76 nM, the “Ratio WT-kd/clone-kd” value was 1.65, the koff was 0.000573 s⁻¹ and the kon was 325000 M⁻¹ s⁻¹.

On to B22, for which the dissociation constant (Kd) turned out to be 1.46 nM, the “Ratio WT-kd/clone-kd” value amounted to 2.01, the koff is 0.000469 s⁻¹ and the association rate constant (kon) was 321000 M⁻¹ s⁻¹.

As for B23, the Kd came to 2.05 nM, the “Ratio WT-kd/clone-kd” value worked out at 1.29, the koff turned out to be 0.00073 s⁻¹ and the kon was 357000 M⁻¹ s⁻¹.

As for B24, binding was characterised by a dissociation constant (Kd) of 2.38 nM, the “Ratio WT-kd/clone-kd” value was 1.38, the koff is 0.000683 s⁻¹ and the kon came out at 287000 M⁻¹ s⁻¹.

With B25, the Kd was found to be 2.12 nM, the “Ratio WT-kd/clone-kd” value was 1.34, the koff was determined as 0.000704 s⁻¹ and the kon came to 333000 M⁻¹ s⁻¹.

Take B26: the Kd is 1.36 nM, the “Ratio WT-kd/clone-kd” value was 2.34, the koff turned out to be 0.000403 s⁻¹ and the kon is 297000 M⁻¹ s⁻¹.

As for B27, the Kd was 1.75 nM, the “Ratio WT-kd/clone-kd” value amounted to 2.02, the koff came out at 0.000466 s⁻¹ and the kon was 266000 M⁻¹ s⁻¹.

(Values after patent US20250011410A1 (INVETX, published 2025).)
